Molecular target: the molecule itself

B1: wild-type α-hemolysin (WT-HL) (natural protein)
chain: ADSDINIKTGTTDIGSNTTVKTGDLVTYDKENGMHKKVFYSFIDDKNHNKKLLVIRTKGTIAGQYRVYSEEGANKSGLAWPSAFKVQLQLPDNEVAQISDYYPRNSIDTKEYMSTLTYGFNGNVTGDDTGKIGGLIGANVSIGHTLKYVQPDFKTILESPTDKKVGWKVIFNNMVNQNWGPYDRDSWNPVYGNQLFMKTRNGSMKAADNFLDPNKASSLLSSGFSPDFATVITMDRKASKQQTNIDVIYERVRDDYQLHWTSTNWKGTNTKDKWIDRSSERYKIDWEKEEMTN
- stoichiometry N: 7
